Results published in the Human Domainome abundance scans (Beltran et al. 2025).
± gives the uncertainty stated by the source.

B1: Cytoplasmic polyadenylation element-binding protein 2, residues 513 to 575; numbered along this chain, Q7Z5Q1 (parent)
chain: KRVEVKPYVLDDQMCDECQGARCGGKFAPFFCANVTCLQYYCEFCWANIHSRAGREFHKPLVK

Variants of: B1
Assay: abundance fitness (aPCA) (normalised: wild type 0, dead -1); higher = more abundant; growth selection in yeast, the domain comes from the species named
Settings: Homo sapiens

Variant | abundance fitness
KRVEVKPYVLDDQMCDECQGARTGGKFAPFFCANVTCLQYYCEFCWANIHSRAGREFHKPLVK | -0.095 ± 0.053
KRVEVKPYVLDDQMCDECQGAREGGKFAPFFCANVTCLQYYCEFCWANIHSRAGREFHKPLVK | -0.153 ± 0.068
KRVEVKPYVLDDQMCDECQGARAGGKFAPFFCANVTCLQYYCEFCWANIHSRAGREFHKPLVK | -0.154 ± 0.066
KRVEVKPYVLDDQMCDECQGARMGGKFAPFFCANVTCLQYYCEFCWANIHSRAGREFHKPLVK | -0.188 ± 0.063
KRVEVKPYVLDDQMCDECQGARRGGKFAPFFCANVTCLQYYCEFCWANIHSRAGREFHKPLVK | -0.185 ± 0.035
KRVEVKPYVLDDQMCDECQGARVGGKFAPFFCANVTCLQYYCEFCWANIHSRAGREFHKPLVK | -0.328 ± 0.06
KRVEVKPYVLDDQMCDECQGARPGGKFAPFFCANVTCLQYYCEFCWANIHSRAGREFHKPLVK | -0.229 ± 0.058
KRVEVKPYVLDDQMCDECQGARQGGKFAPFFCANVTCLQYYCEFCWANIHSRAGREFHKPLVK | -0.24 ± 0.075
KRVEVKPYVLDDQMCDECQGARDGGKFAPFFCANVTCLQYYCEFCWANIHSRAGREFHKPLVK | 0.028 ± 0.074
KRVEVKPYVLDDQMCDECQGARSGGKFAPFFCANVTCLQYYCEFCWANIHSRAGREFHKPLVK | -0.074 ± 0.035
KRVEVKPYVLDDQMCDECQGARYGGKFAPFFCANVTCLQYYCEFCWANIHSRAGREFHKPLVK | -0.38 ± 0.068
KRVEVKPYVLDDQMCDECQGARLGGKFAPFFCANVTCLQYYCEFCWANIHSRAGREFHKPLVK | -0.285 ± 0.041
KRVEVKPYVLDDQMCDECQGARKGGKFAPFFCANVTCLQYYCEFCWANIHSRAGREFHKPLVK | -0.194 ± 0.06
KRVEVKPYVLDDQMCDECQGARNGGKFAPFFCANVTCLQYYCEFCWANIHSRAGREFHKPLVK | -0.121 ± 0.075
KRVEVKPYVLDDQMCDECQGARFGGKFAPFFCANVTCLQYYCEFCWANIHSRAGREFHKPLVK | -0.409 ± 0.07
KRVEVKPYVLDDQMCDECQGARGGGKFAPFFCANVTCLQYYCEFCWANIHSRAGREFHKPLVK | -0.056 ± 0.042
KRVEVKPYVLDDQMCDECQGARWGGKFAPFFCANVTCLQYYCEFCWANIHSRAGREFHKPLVK | -0.424 ± 0.061
KRVEVKPYVLDDQMCDECQGAMCGGKFAPFFCANVTCLQYYCEFCWANIHSRAGREFHKPLVK | -0.026 ± 0.066
KRVEVKPYVLDDQMCDECQGANCGGKFAPFFCANVTCLQYYCEFCWANIHSRAGREFHKPLVK | -0.032 ± 0.14
KRVEVKPYVLDDQMCDECQGAGCGGKFAPFFCANVTCLQYYCEFCWANIHSRAGREFHKPLVK | -0.303 ± 0.054
KRVEVKPYVLDDQMCDECQGAFCGGKFAPFFCANVTCLQYYCEFCWANIHSRAGREFHKPLVK | -0.363 ± 0.088
KRVEVKPYVLDDQMCDECQGAVCGGKFAPFFCANVTCLQYYCEFCWANIHSRAGREFHKPLVK | -0.343 ± 0.05

Variant | abundance fitness
KRVEVKPYVLDDQMCDECQGASCGGKFAPFFCANVTCLQYYCEFCWANIHSRAGREFHKPLVK | -0.04 ± 0.04
KRVEVKPYVLDDQMCDECQGAICGGKFAPFFCANVTCLQYYCEFCWANIHSRAGREFHKPLVK | -0.284 ± 0.07
KRVEVKPYVLDDQMCDECQGAHCGGKFAPFFCANVTCLQYYCEFCWANIHSRAGREFHKPLVK | 0.077 ± 0.098
KRVEVKPYVLDDQMCDECQGALCGGKFAPFFCANVTCLQYYCEFCWANIHSRAGREFHKPLVK | -0.128 ± 0.044
KRVEVKPYVLDDQMCDECQGAECGGKFAPFFCANVTCLQYYCEFCWANIHSRAGREFHKPLVK | -0.222 ± 0.061
KRVEVKPYVLDDQMCDECQGAQCGGKFAPFFCANVTCLQYYCEFCWANIHSRAGREFHKPLVK | 0.1 ± 0.073
KRVEVKPYVLDDQMCDECQGAWCGGKFAPFFCANVTCLQYYCEFCWANIHSRAGREFHKPLVK | -0.332 ± 0.078
KRVEVKPYVLDDQMCDECQGATCGGKFAPFFCANVTCLQYYCEFCWANIHSRAGREFHKPLVK | -0.283 ± 0.055
KRVEVKPYVLDDQMCDECQGAPCGGKFAPFFCANVTCLQYYCEFCWANIHSRAGREFHKPLVK | -0.504 ± 0.076
KRVEVKPYVLDDQMCDECQGAKCGGKFAPFFCANVTCLQYYCEFCWANIHSRAGREFHKPLVK | 0.006 ± 0.06
KRVEVKPYVLDDQMCDECQGADCGGKFAPFFCANVTCLQYYCEFCWANIHSRAGREFHKPLVK | -0.289 ± 0.075
KRVEVKPYVLDDQMCDECQGARCHGKFAPFFCANVTCLQYYCEFCWANIHSRAGREFHKPLVK | -0.252 ± 0.12
KRVEVKPYVLDDQMCDECQGARCIGKFAPFFCANVTCLQYYCEFCWANIHSRAGREFHKPLVK | -0.418 ± 0.06
KRVEVKPYVLDDQMCDECQGARCCGKFAPFFCANVTCLQYYCEFCWANIHSRAGREFHKPLVK | -0.242 ± 0.06
KRVEVKPYVLDDQMCDECQGARCLGKFAPFFCANVTCLQYYCEFCWANIHSRAGREFHKPLVK | -0.089 ± 0.035
KRVEVKPYVLDDQMCDECQGARCNGKFAPFFCANVTCLQYYCEFCWANIHSRAGREFHKPLVK | 0.172 ± 0.094
KRVEVKPYVLDDQMCDECQGARCEGKFAPFFCANVTCLQYYCEFCWANIHSRAGREFHKPLVK | 0.018 ± 0.053
KRVEVKPYVLDDQMCDECQGARCKGKFAPFFCANVTCLQYYCEFCWANIHSRAGREFHKPLVK | -0.068 ± 0.049
KRVEVKPYVLDDQMCDECQGARCMGKFAPFFCANVTCLQYYCEFCWANIHSRAGREFHKPLVK | -0.275 ± 0.06
KRVEVKPYVLDDQMCDECQGARCPGKFAPFFCANVTCLQYYCEFCWANIHSRAGREFHKPLVK | -0.21 ± 0.06
KRVEVKPYVLDDQMCDECQGARCAGKFAPFFCANVTCLQYYCEFCWANIHSRAGREFHKPLVK | -0.052 ± 0.051
